Measurements from PMC9482650, “Quantitative fragmentomics allow affinity mapping of interactomes” (Nature Communications, 2022).

How the values were obtained:
Assay in all cases: holdup assay
Parameters in all cases: key: below the threshold = too weak to quantify, mostly under pKd 3.1 to 4
APBA1_1, Q02410 = molecular target: T1, APBA1_1, Q02410
T1 sequence (Q02410 651-752, limits assumed, looked up): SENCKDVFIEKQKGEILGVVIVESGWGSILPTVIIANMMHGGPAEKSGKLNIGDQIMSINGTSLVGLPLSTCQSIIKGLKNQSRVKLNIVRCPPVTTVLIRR

APBA1_2, Q02410 = molecular target: T2, APBA1_2, Q02410
T2 sequence (Q02410 742-832, limits assumed, looked up): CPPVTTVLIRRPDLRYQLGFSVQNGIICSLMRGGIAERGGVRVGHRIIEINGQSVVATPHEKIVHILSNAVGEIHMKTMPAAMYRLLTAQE

DFNB31_2, Q9P202 = molecular target: T3, DFNB31_2, Q9P202
T3 sequence (Q9P202 274-371, limits assumed, looked up): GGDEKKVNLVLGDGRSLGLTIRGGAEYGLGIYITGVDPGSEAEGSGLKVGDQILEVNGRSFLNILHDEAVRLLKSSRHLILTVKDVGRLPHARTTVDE

DLG4_3, P78352 = molecular target: DLG4_3, P78352
Sequence of DLG4_3, P78352 (P78352 306-403): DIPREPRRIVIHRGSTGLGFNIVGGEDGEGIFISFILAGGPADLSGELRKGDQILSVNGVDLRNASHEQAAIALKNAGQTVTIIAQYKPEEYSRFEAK

FRMPD1, Q5SYB0 = molecular target: T4, FRMPD1, Q5SYB0
T4 sequence (Q5SYB0 52-145, limits assumed, looked up): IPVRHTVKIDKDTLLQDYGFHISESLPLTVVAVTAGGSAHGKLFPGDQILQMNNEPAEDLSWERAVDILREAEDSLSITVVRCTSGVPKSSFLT

GIPC2, Q8TF65 = molecular target: GIPC2, Q8TF65
Sequence of GIPC2, Q8TF65 (Q8TF65 112-203): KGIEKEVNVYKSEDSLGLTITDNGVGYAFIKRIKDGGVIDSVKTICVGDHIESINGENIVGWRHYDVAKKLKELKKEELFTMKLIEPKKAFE

GOPC, Q9HD26 = molecular target: GOPC, Q9HD26
GRIP1_4, Q9Y3R0 = molecular target: T5, GRIP1_4, Q9Y3R0
T5 sequence (Q9Y3R0 467-571, limits assumed, looked up): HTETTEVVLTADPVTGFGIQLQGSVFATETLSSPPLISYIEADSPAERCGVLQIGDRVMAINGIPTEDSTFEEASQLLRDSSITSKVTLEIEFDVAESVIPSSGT

GRIP1_5, Q9Y3R0 = molecular target: T6, GRIP1_5, Q9Y3R0
T6 sequence (Q9Y3R0 568-668, limits assumed, looked up): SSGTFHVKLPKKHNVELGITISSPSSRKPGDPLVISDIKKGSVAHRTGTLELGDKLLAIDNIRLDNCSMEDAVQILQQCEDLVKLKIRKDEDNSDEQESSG

HTRA1, Q92743 = molecular target: HTRA1, Q92743
Sequence of HTRA1, Q92743 (Q92743 360-477): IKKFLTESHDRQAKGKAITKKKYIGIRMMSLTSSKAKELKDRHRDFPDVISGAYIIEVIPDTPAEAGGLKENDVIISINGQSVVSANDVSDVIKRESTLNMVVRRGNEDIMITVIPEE

HTRA3, P83110 = molecular target: T7, HTRA3, P83110
T7 sequence (P83110 354-453, limits assumed, looked up): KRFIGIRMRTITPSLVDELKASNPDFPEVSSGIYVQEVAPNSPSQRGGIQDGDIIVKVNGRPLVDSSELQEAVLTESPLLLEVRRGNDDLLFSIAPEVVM

HTRA4, P83105 = molecular target: T8, HTRA4, P83105
T8 sequence (P83105 378-476, limits assumed, looked up): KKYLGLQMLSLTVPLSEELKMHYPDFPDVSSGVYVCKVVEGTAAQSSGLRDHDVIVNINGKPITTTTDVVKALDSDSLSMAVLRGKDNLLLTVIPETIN

Inadl_1, Q8NI35 = molecular target: Inadl_1, Q8NI35
Sequence of Inadl_1, Q8NI35 (Q8NI35 113-229): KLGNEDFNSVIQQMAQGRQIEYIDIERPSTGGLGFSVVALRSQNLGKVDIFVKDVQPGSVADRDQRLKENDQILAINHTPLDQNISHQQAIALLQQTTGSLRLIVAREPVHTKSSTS

Inadl_2, Q8NI35 = molecular target: Inadl_2, Q8NI35
Sequence of Inadl_2, Q8NI35 (Q8NI35 238-335): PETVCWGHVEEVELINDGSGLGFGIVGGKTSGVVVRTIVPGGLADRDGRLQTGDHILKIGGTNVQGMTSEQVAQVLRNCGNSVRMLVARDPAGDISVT

Inadl_3, Q8NI35 = molecular target: Inadl_3, Q8NI35
Sequence of Inadl_3, Q8NI35 (Q8NI35 359-469): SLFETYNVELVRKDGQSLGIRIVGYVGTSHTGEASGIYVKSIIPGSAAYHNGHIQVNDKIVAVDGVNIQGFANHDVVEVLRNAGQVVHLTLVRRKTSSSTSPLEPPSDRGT

Inadl_4, Q8NI35 = molecular target: Inadl_4, Q8NI35
Sequence of Inadl_4, Q8NI35 (Q8NI35 547-651): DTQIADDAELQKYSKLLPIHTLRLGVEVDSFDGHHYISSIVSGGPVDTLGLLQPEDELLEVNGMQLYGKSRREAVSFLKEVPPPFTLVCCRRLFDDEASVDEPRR

MAGI2_4, Q86UL8 = molecular target: MAGI2_4, Q86UL8
Sequence of MAGI2_4, Q86UL8 (Q86UL8 772-865): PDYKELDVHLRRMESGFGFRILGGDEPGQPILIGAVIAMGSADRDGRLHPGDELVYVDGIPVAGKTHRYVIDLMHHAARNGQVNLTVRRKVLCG

MPDZ_10, O75970 = molecular target: T9, MPDZ_10, O75970
T9 sequence (O75970 1624-1722, limits assumed, looked up): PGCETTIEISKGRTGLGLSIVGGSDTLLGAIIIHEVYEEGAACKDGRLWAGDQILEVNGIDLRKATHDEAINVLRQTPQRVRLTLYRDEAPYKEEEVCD

NHERF4_1, Q86UT5-2 = molecular target: NHERF4_1, Q86UT5-2
Sequence of NHERF4_1, Q86UT5-2 (Q86UT5 other isoform, or with tags, fused parts or gaps): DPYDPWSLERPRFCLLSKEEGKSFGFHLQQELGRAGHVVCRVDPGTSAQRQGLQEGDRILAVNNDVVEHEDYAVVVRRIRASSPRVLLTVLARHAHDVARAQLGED

NOS1, P29475 = molecular target: NOS1, P29475
Sequence of NOS1, P29475 (P29475 9-101): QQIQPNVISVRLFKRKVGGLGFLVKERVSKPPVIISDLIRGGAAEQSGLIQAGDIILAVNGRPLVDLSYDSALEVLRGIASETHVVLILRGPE

PDZRN3_1, Q9UPQ7 = molecular target: T10, PDZRN3_1, Q9UPQ7
T10 sequence (Q9UPQ7 244-349, limits assumed, looked up): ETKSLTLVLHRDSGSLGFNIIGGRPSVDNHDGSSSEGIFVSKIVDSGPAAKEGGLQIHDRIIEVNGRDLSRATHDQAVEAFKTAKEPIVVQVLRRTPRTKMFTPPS

SCRIB_2, Q14160 = molecular target: SCRIB_2, Q14160
Sequence of SCRIB_2, Q14160 (Q14160 857-960): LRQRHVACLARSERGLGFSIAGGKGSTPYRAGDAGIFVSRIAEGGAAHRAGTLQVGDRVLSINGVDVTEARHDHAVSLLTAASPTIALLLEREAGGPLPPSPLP

SCRIB_3, Q14160 = molecular target: SCRIB_3, Q14160
Sequence of SCRIB_3, Q14160 (Q14160 999-1103): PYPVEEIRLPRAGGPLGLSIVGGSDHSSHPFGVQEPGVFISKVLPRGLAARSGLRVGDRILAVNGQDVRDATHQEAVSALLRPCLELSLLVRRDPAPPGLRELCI

TIAM2, Q8IVF5 = molecular target: T11, TIAM2, Q8IVF5
T11 sequence (Q8IVF5 885-986, limits assumed, looked up): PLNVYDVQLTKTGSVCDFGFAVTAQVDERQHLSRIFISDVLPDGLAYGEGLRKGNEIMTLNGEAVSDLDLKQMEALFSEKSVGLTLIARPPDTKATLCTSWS

TJP2_1, Q9UDY2 = molecular target: TJP2_1, Q9UDY2
Sequence of TJP2_1, Q9UDY2 (Q9UDY2 24-128): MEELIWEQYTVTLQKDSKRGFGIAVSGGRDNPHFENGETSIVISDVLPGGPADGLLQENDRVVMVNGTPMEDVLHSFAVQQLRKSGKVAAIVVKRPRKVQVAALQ

TJP3_3, O95049 = molecular target: T12, TJP3_3, O95049
T12 sequence (O95049 375-456, limits assumed, looked up): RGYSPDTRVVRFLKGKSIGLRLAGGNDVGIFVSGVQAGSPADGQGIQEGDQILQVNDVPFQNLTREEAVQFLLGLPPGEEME

[1] = plain residues with an end cap or a label only (N-terminal biotin on a linker: gsgsgs; C-terminal amide)
[2] = plain residues with an end cap or a label only (N-terminal biotin on a linker: ttds)

YGIVQETTFDLGGDIH [MLLT4_int, P55196]
pKd (APBA1_1, Q02410; [1]): below the threshold
pKd (APBA1_2, Q02410; [1]): below the threshold
pKd (DFNB31_2, Q9P202; [1]): below the threshold
pKd (DLG4_3, P78352; [1]): below the threshold
pKd (FRMPD1, Q5SYB0; [1]): below the threshold
pKd (GIPC2, Q8TF65; [1]): below the threshold
pKd (GOPC, Q9HD26; [1]): below the threshold
pKd (GRIP1_4, Q9Y3R0; [1]): below the threshold
pKd (GRIP1_5, Q9Y3R0; [1]): below the threshold
pKd (HTRA1, Q92743; [1]): below the threshold
pKd (HTRA3, P83110; [1]): below the threshold
pKd (HTRA4, P83105; [1]): below the threshold
pKd (Inadl_1, Q8NI35; [1]): below the threshold
pKd (Inadl_2, Q8NI35; [1]): below the threshold
pKd (Inadl_3, Q8NI35; [1]): below the threshold
pKd (Inadl_4, Q8NI35; [1]): below the threshold
pKd (MAGI2_4, Q86UL8; [1]): below the threshold
pKd (MPDZ_10, O75970; [1]): below the threshold
pKd (NHERF4_1, Q86UT5-2; [1]): below the threshold
pKd (NOS1, P29475; [1]): below the threshold
pKd (PDZRN3_1, Q9UPQ7; [1]): below the threshold
pKd (SCRIB_2, Q14160; [1]): 3.65
pKd (SCRIB_3, Q14160; [1]): 4.61
pKd (TIAM2, Q8IVF5; [1]): 3.98
pKd (TJP2_1, Q9UDY2; [1]): below the threshold
pKd (TJP3_3, O95049; [1]): below the threshold

SGSRPSATVV [HPV73-E6, Q82005]
pKd (APBA1_1, Q02410; [2]): below the threshold
pKd (APBA1_2, Q02410; [2]): 4.02
pKd (DFNB31_2, Q9P202; [2]): below the threshold
pKd (DLG4_3, P78352; [2]): below the threshold
pKd (FRMPD1, Q5SYB0; [2]): below the threshold
pKd (GIPC2, Q8TF65; [2]): 3.62
pKd (GOPC, Q9HD26; [2]): 3.59
pKd (GRIP1_4, Q9Y3R0; [2]): below the threshold
pKd (GRIP1_5, Q9Y3R0; [2]): below the threshold
pKd (HTRA1, Q92743; [2]): 3.9
pKd (HTRA3, P83110; [2]): 3.7
pKd (HTRA4, P83105; [2]): 3.86
pKd (Inadl_1, Q8NI35; [2]): below the threshold
pKd (Inadl_2, Q8NI35; [2]): below the threshold
pKd (Inadl_3, Q8NI35; [2]): below the threshold
pKd (Inadl_4, Q8NI35; [2]): below the threshold
pKd (MAGI2_4, Q86UL8; [2]): 4.49
pKd (MPDZ_10, O75970; [2]): 3.74
pKd (NHERF4_1, Q86UT5-2; [2]): below the threshold
pKd (NOS1, P29475; [2]): 3.8
pKd (PDZRN3_1, Q9UPQ7; [2]): below the threshold
pKd (SCRIB_2, Q14160; [2]): 3.56
pKd (SCRIB_3, Q14160; [2]): below the threshold
pKd (TIAM2, Q8IVF5; [2]): below the threshold
pKd (TJP2_1, Q9UDY2; [2]): 3.77
pKd (TJP3_3, O95049; [2]): below the threshold

RPLPRKVSQL [DOCK4, Q8N1I0]
pKd (APBA1_1, Q02410; [2]): below the threshold
pKd (APBA1_2, Q02410; [2]): 3.97
pKd (DFNB31_2, Q9P202; [2]): below the threshold
pKd (DLG4_3, P78352; [2]): 3.69
pKd (FRMPD1, Q5SYB0; [2]): below the threshold
pKd (GIPC2, Q8TF65; [2]): below the threshold
pKd (GOPC, Q9HD26; [2]): 4.03
pKd (GRIP1_4, Q9Y3R0; [2]): below the threshold
pKd (GRIP1_5, Q9Y3R0; [2]): below the threshold
pKd (HTRA1, Q92743; [2]): below the threshold
pKd (HTRA3, P83110; [2]): below the threshold
pKd (HTRA4, P83105; [2]): below the threshold
pKd (Inadl_1, Q8NI35; [2]): below the threshold
pKd (Inadl_2, Q8NI35; [2]): below the threshold
pKd (Inadl_3, Q8NI35; [2]): below the threshold
pKd (Inadl_4, Q8NI35; [2]): below the threshold
pKd (MAGI2_4, Q86UL8; [2]): below the threshold
pKd (MPDZ_10, O75970; [2]): below the threshold
pKd (NHERF4_1, Q86UT5-2; [2]): 4.32
pKd (NOS1, P29475; [2]): below the threshold
pKd (PDZRN3_1, Q9UPQ7; [2]): 3.64
pKd (SCRIB_2, Q14160; [2]): below the threshold
pKd (SCRIB_3, Q14160; [2]): 4.72
pKd (TIAM2, Q8IVF5; [2]): below the threshold
pKd (TJP2_1, Q9UDY2; [2]): below the threshold
pKd (TJP3_3, O95049; [2]): below the threshold

FHPLGADSQV [SLC2A1, P11166]
pKd (APBA1_1, Q02410; [2]): below the threshold
pKd (APBA1_2, Q02410; [2]): below the threshold
pKd (DFNB31_2, Q9P202; [2]): below the threshold
pKd (DLG4_3, P78352; [2]): below the threshold
pKd (FRMPD1, Q5SYB0; [2]): below the threshold
pKd (GIPC2, Q8TF65; [2]): 3.5
pKd (GOPC, Q9HD26; [2]): below the threshold
pKd (GRIP1_4, Q9Y3R0; [2]): below the threshold
pKd (GRIP1_5, Q9Y3R0; [2]): below the threshold
pKd (HTRA1, Q92743; [2]): below the threshold
pKd (HTRA3, P83110; [2]): below the threshold
pKd (HTRA4, P83105; [2]): below the threshold
pKd (Inadl_1, Q8NI35; [2]): 3.49
pKd (Inadl_2, Q8NI35; [2]): below the threshold
pKd (Inadl_3, Q8NI35; [2]): below the threshold
pKd (Inadl_4, Q8NI35; [2]): below the threshold
pKd (MAGI2_4, Q86UL8; [2]): below the threshold
pKd (MPDZ_10, O75970; [2]): below the threshold
pKd (NHERF4_1, Q86UT5-2; [2]): below the threshold
pKd (NOS1, P29475; [2]): 3.49
pKd (PDZRN3_1, Q9UPQ7; [2]): 3.53
pKd (SCRIB_2, Q14160; [2]): below the threshold
pKd (SCRIB_3, Q14160; [2]): 3.58
pKd (TIAM2, Q8IVF5; [2]): below the threshold
pKd (TJP2_1, Q9UDY2; [2]): below the threshold
pKd (TJP3_3, O95049; [2]): below the threshold

VDFPPKESSL [ACVR2A, P27037]
pKd (APBA1_1, Q02410; [2]): below the threshold
pKd (APBA1_2, Q02410; [2]): 3.33
pKd (DFNB31_2, Q9P202; [2]): 3.46
pKd (DLG4_3, P78352; [2]): 3.71
pKd (FRMPD1, Q5SYB0; [2]): below the threshold
pKd (GIPC2, Q8TF65; [2]): below the threshold
pKd (GOPC, Q9HD26; [2]): 3.45
pKd (GRIP1_4, Q9Y3R0; [2]): below the threshold
pKd (GRIP1_5, Q9Y3R0; [2]): below the threshold
pKd (HTRA1, Q92743; [2]): below the threshold
pKd (HTRA3, P83110; [2]): below the threshold
pKd (HTRA4, P83105; [2]): below the threshold
pKd (Inadl_1, Q8NI35; [2]): below the threshold
pKd (Inadl_2, Q8NI35; [2]): below the threshold
pKd (Inadl_3, Q8NI35; [2]): below the threshold
pKd (Inadl_4, Q8NI35; [2]): below the threshold
pKd (MAGI2_4, Q86UL8; [2]): below the threshold
pKd (MPDZ_10, O75970; [2]): below the threshold
pKd (NHERF4_1, Q86UT5-2; [2]): 3.35
pKd (NOS1, P29475; [2]): below the threshold
pKd (PDZRN3_1, Q9UPQ7; [2]): 4.76
pKd (SCRIB_2, Q14160; [2]): 3.48
pKd (SCRIB_3, Q14160; [2]): 4.88
pKd (TIAM2, Q8IVF5; [2]): below the threshold
pKd (TJP2_1, Q9UDY2; [2]): below the threshold
pKd (TJP3_3, O95049; [2]): below the threshold
